B1: 6YSE (parent)
chain: HERALMVNRLQKLTRMLRVHPDPKWKQEQQELIKRLK

Variants of: B1
Experiment: folding stability dG (cDNA display proteolysis); higher = more stable
Details: PBS, room temperature

Folding stability dG [kJ/mol], by site and new letter:
L5: I 5.9, P -0.297, M 7.68, Q 6.76, V 5.4, D 4.19, A 6.72, K 6.72, T 5.31, H 6.73, R 7.5, S 6.21, F 4.97, G 4.85, W 8.6, N 4.65, Y 5.16
R9: G -2.56, T -0.167, I 3.07, K 2.31, H 0.657, W 3.81, L 3.92, F 3.22, A -0.686, C 4.98, Y 2.53, S -2.52, E 0.569, M 3.42, V -1.74, Q 2.6
Q11: D 4.01, R 8.95, G 2.89, L 7.08, Y 5.92, I 8.88, E 4.54, V 6.2, S 4.61, T 4.56, C 9.36, A 6.44, W 6.28, N 5.62, M 7.22, K 8.89, H 5.77, F 5.13
L10: I 3.99, F -1.04, Y 1.22, W -1.69, M -1.37, V 0.682
A4: Q 6.82, F 4.69, E 5.65, W 7.09, H 5.64, G 3.28, S 4.42, K 7.02, N 5.48, V 5.14, I 6.39, T 6.11, Y 5.87, P 0.929, D 5.66, M 6.93, L 6.23
V7: Q 4.32, W 8.18, M 6.67, N 2.12, T 2.47, G 2.38, I 7.45, Y 7, R 6.47, H 4.57, L 8.59, D -0.602, S 0.36, F 5.93, P -0.0418, K 4.4, E 4.67, A 3.96, C 8.19
E2: F 5.33, V 5.15, Q 5.25, D 4.83, A 4.77, H 4.4, K 4.83, G 3.27, S 4.58, W 6.92, Y 5.54, M 6.09, I 5.85, L 6.67, P 3.17, R 3.77, N 5.1
H1: C 8.86, L 5.7, P 5.49, Y 6.65, E 5.26, Q 5.76, T 6.08, S 6.27, A 6.49, G 4.41, W 7.31, D 6.42, F 6.67, K 5.93, N 6.08, I 5.61, R 6.84, M 7.05
R3: H 4.92, L 6.72, A 1.82, Q 3.29, D 1.75, T 4.43, K 4.29, G 0.808, E 2.72, N 3.76, I 6.82, M 4.16, V 5.61, Y 7.06, F 6.93, W 6.66, S 2.04
K12: S 3.39, F 9.44, N 4.24, G -1.14, V 5.99, I 6, R 5.44, T 5.44, D 4.19, A 5.67, L 6.42, Q 7.16, M 6.23, H 5.73
M6: I 7.52, N -3.6, V 3, A 2.4, D 1.6, E 0.0962, W 3.48, Q 1.46
